The source of these data is patent US20250019461A1 (HUMMINGBIRD BIOSCIENCE PTE, published 2025).

What is called EC50 (read off the curve) is the concentration at which the effect is half-maximal. What is called IC50 is the midpoint of a concentration-inhibition curve.

Experiment [1] deals with T1, human HER3 expressed at the cell surface (human, UniProt P21860 20-1342).
T1 construct: also called HEK293 HER3 O/E cells; HEK293 cells transfected with vector encoding human HER3
The experiment can be described thus: flow cytometry on HEK293 cells overexpressing human HER3 (HEK293 O/E H3), antibody 20 µg/ml, FITC anti-Fc secondary; same antibody on WT HEK293: 1.91. (In general: In flow cytometry, cells or beads pass a laser one at a time.)

Experiment [2] concerns the target T2, recombinant human HER3 polypeptide (His-tagged) (human, UniProt P21860 20-643, biotinylated in the HER2 (Example 4.1) and EGFR (Example 8.7) dimerisation ELISAs).
T2 construct: Soluble recombinant human HER3 preparations of the ELISA, BLI and dimerisation assays are gathered here; also called His-tagged human HER3; human HER3 polypeptide (Sino Biological); not shown: His tag
The experiment can be described thus: ELISA, plate coated with human HER3, antibody serially diluted. On the technique in general: An ELISA detects its analyte on a solid surface through an enzyme-linked reagent.

Experiment [3] concerns the target T1, human HER3 expressed at the cell surface. The experiment can be described thus: flow cytometry on HEK293 cells overexpressing human HER3 (HEK293 O/E H3), antibody 20 µg/ml, FITC anti-Fc secondary; same antibody on WT HEK293: 0.60.
In experiment [4] the target is T3, human HER2 (human, UniProt P04626 23-652).
T3 construct: also called human HER2 (Sino Biological)
Put plainly: ELISA, plate coated with 0.1 µg/ml human HER2, antibody serially diluted.

The target of experiment [5] is T1, human HER3 expressed at the cell surface. The experiment can be described thus: flow cytometry on HEK293 cells overexpressing human HER3 (HEK293 O/E H3), antibody 20 µg/ml, FITC anti-Fc secondary; same antibody on WT HEK293: 0.60. The source holds these as a separate data set.
Experiment [6] concerns the target T4, human EGFR (human, UniProt P00533 25-645).
T4 construct: also called human HER1 (EGFR) (Sino Biological)
The experiment can be described thus: ELISA, plate coated with 0.1 µg/ml human EGFR, antibody serially diluted.

Experiment [7] deals with T2, recombinant human HER3 polypeptide …. Put plainly: plate ELISA of the EGFR:HER3 interaction: human EGFR-His coat, HER3-biotin 4 µg/ml and NRG 0.1 µg/ml with titrated antibody, avidin HRP detection; blocked partner EGFR-His.

B1: anti-HER3 antibody clone LJM716 (antibody, V domains shown)
VH: EVQLLESGGGLVQPGGSLRLSCAASGFTFSSYAMSWVRQAPGKGLEWVSAINSQGKSTYYADSVKGRFTISRDNSKNTLYLQMNSLRAEDTAVYYCARWGDEGFDIWGQGTLVTVSS
VL: DIQMTQSPSSLSASVGDRVTITCRASQGISNWLAWYQQKPGKAPKLLIYGASSLQSGVPSRFSGSGSGTDFTLTISSLQPEDFATYYCQQYSSFPTTFGQGTKVEIK
In the case of B1, the “% Parent (HER3 positive)” value in experiment [1] turned out to be 99.5%.

B2: anti-HER3 clone 10D1_c91 IgG1 (antibody, V domains shown)
VH: QVQLQESGPGLVKPSQTLSLTCTVSGYYITSGYSWHWIRQHPGKGLEWIGSIRYSGGTDYNPSLKSLATISADTSKNQFSLKLSSVTAADTAVYYCARMTTAPWYPFDYWGQGTAVTVSS
VL: DIQMTQSPSSVSASVGDRVTITCKASQIVGSNVAWYQQKPGKAPMPLIYSASYGYSGVPSRFSGSGSGTDFTLTISSLQPEDFATYYCQQYSSHPLTFGQGTKLEIKR
notes: Humanised 10D1 variant, IgG1 kappa; also called [18]
Regarding B2, the “EC50 (read off the curve)” value in experiment [2] was about 6 ng/mL.

B3: anti-HER3 clone 10D1 IgG1 (antibody)
heavy: not shown
light: DIVMTQSQKFMSTSVGDRVSVTCKASQIVGSNVAWYQQKPGQSPKPLIYSASYRYSGVPDRFTASGSGTDFTLTITNVQSEDLAEYFCQQYSSHPLTFGAGTKLELKRTVAAPSVFIFPPSDEQLKSGTASVVCLLNNFYPREAKVQWKVDNALQSGNSQESVTEQDSKDSTYSLSSTLTLSKADYEKHKVYACEVTHQGLSSPVTKSFNRGEC
notes: Human-mouse chimeric IgG1 kappa; also called 10D1P; 10D1 (parental)
Turning to B3, the “% Parent (HER3 positive)” value in experiment [3] and in experiment [5] was 99% throughout. In addition, the binding result in experiment [4] and in experiment [6] was “no binding (tested: about log -6.7 M (10 µg/ml per paragraph 597))” each time.

B4: MM-121 (antibody, V domains shown)
VH: EVQLLESGGGLVQPGGSLRLSCAASGFTFSAYNMRWVRQAPGKGLEWVSVIYPSGGATRYADSVKGRFTISRDNSKNTLYLQMNSLRAEDTAVYYCARGYYYYGMDVWGQGTLVTVSS
VL: QSVLTQPPSASGTPGQRVTISCSGSDSNIGRNYIYWYQQFPGTAPKLLIYRNNQRPSGVPDRISGSKSGTSASLAISGLRSEDEAEYHCGTWDDSLSGPVFGGGTKLTVL
Turning to B4, the IC50 in experiment [7] worked out at 0.0542 µM.
